Results as given in publication PMC10397247.

Assays:
4H568-bA = molecular target: T1, 4H568-bA; assay: two-hybrid library CCNG1;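 further: natural log of median RNA to DNA barcode read ratio; higher means stronger binding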
T1 chain: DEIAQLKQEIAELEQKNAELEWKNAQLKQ

4H72-bA = molecular target: T2, 4H72-bA; assay: two-hybrid library CCNG1;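 further: natural log of median RNA to DNA barcode read ratio; higher means stronger binding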
T2 chain: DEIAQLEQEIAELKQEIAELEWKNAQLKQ

4H953-bA = molecular target: T3, 4H953-bA; assay: two-hybrid library CCNG1;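 further: natural log of median RNA to DNA barcode read ratio; higher means stronger binding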
T3 chain: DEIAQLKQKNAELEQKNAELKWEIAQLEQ

4H687-bA = molecular target: T4, 4H687-bA; assay: two-hybrid library CCNG1;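 further: natural log of median RNA to DNA barcode read ratio; higher means stronger binding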
T4 chain: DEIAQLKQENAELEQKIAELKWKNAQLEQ

4H754-bA = molecular target: T5, 4H754-bA; assay: two-hybrid library CCNG1
T5 chain: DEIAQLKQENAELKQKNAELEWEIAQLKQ

4H717-bA = molecular target: T6, 4H717-bA; assay: two-hybrid library CCNG1
T6 chain: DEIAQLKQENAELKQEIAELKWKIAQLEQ

4H454-bA = molecular target: T7, 4H454-bA; assay: two-hybrid library CCNG1
T7 chain: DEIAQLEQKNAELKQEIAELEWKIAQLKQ

4H797-bA = molecular target: T8, 4H797-bA; assay: two-hybrid library CCNG1
T8 chain: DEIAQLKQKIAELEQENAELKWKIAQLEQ

4H908-bA = molecular target: T9, 4H908-bA; assay: two-hybrid library CCNG1
T9 chain: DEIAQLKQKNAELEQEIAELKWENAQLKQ

4H918-bA = molecular target: T10, 4H918-bA; assay: two-hybrid library CCNG1
T10 chain: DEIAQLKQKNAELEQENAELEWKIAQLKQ

4H967-bA = molecular target: T11, 4H967-bA; assay: two-hybrid library CCNG1
T11 chain: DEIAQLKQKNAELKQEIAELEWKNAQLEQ

4H607-bA = molecular target: T12, 4H607-bA; assay: two-hybrid library CCNG1
T12 chain: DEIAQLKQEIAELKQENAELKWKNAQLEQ

4H883-bA = molecular target: T13, 4H883-bA; assay: two-hybrid library CCNG1
T13 chain: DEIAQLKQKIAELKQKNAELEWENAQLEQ

4H446-AA = molecular target: T14, 4H446-AA; assay: two-hybrid library CCmax; conditions: mean of both orientations
T14 chain: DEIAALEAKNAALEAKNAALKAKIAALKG

4H3915-AA = molecular target: T15, 4H3915-AA; assay: two-hybrid library CCmax; conditions: mean of both orientations
T15 chain: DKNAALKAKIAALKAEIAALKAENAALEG

4H63-AA = molecular target: T16, 4H63-AA; assay: two-hybrid library CCmax; conditions: mean of both orientations
T16 chain: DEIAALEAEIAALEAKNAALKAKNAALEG

4H380-AA = molecular target: T17, 4H380-AA; assay: two-hybrid library CCmax; conditions: mean of both orientations
T17 chain: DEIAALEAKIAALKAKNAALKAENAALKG

4H3094-AA = molecular target: T18, 4H3094-AA; assay: two-hybrid library CCmax; conditions: mean of both orientations
T18 chain: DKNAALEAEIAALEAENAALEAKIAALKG

4H324-AA = molecular target: T19, 4H324-AA; assay: two-hybrid library CCmax; conditions: mean of both orientations
T19 chain: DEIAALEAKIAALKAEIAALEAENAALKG

4H341-AA = molecular target: T20, 4H341-AA; assay: two-hybrid library CCmax; conditions: mean of both orientations
T20 chain: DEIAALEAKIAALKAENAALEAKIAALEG

4H2961-AA = molecular target: T21, 4H2961-AA; assay: two-hybrid library CCmax; conditions: mean of both orientations
T21 chain: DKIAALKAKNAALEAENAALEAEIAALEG

4H3449-AA = molecular target: T22, 4H3449-AA; assay: two-hybrid library CCmax; conditions: mean of both orientations
T22 chain: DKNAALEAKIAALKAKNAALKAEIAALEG

4H3619-AA = molecular target: T23, 4H3619-AA; assay: two-hybrid library CCmax; conditions: mean of both orientations
T23 chain: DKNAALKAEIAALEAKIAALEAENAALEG

4H3049-AA = molecular target: T24, 4H3049-AA; assay: two-hybrid library CCmax; conditions: mean of both orientations
T24 chain: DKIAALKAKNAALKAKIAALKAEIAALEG

4H3777-AA = molecular target: T25, 4H3777-AA; assay: two-hybrid library CCmax; conditions: mean of both orientations
T25 chain: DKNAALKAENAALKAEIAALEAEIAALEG

4H3629-AA = molecular target: T26, 4H3629-AA; assay: two-hybrid library CCmax; conditions: mean of both orientations
T26 chain: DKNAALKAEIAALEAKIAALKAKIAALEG

4H3974-AA = molecular target: T27, 4H3974-AA; assay: two-hybrid library CCmax; conditions: mean of both orientations
T27 chain: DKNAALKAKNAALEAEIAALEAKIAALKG

4H432-AA = molecular target: T28, 4H432-AA; assay: two-hybrid library CCmax; conditions: mean of both orientations
T28 chain: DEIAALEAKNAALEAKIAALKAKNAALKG

4H492-bH = molecular target: T29, 4H492-bH; assay: two-hybrid library CCNG1
T29 chain: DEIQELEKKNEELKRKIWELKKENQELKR

4H741-bH = molecular target: T30, 4H741-bH; assay: two-hybrid library CCNG1
T30 chain: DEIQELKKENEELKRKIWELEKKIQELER

4H687-bN = molecular target: T31, 4H687-bN; assay: two-hybrid library CCNG1
T31 chain: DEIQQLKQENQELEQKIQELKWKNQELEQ

4H918-bN = molecular target: T32, 4H918-bN; assay: two-hybrid library CCNG1
T32 chain: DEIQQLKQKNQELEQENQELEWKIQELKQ

4H754-bN = molecular target: T33, 4H754-bN; assay: two-hybrid library CCNG1
T33 chain: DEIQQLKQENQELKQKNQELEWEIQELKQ

4H967-bN = molecular target: T34, 4H967-bN; assay: two-hybrid library CCNG1
T34 chain: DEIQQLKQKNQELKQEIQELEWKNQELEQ

4H797-bN = molecular target: T35, 4H797-bN; assay: two-hybrid library CCNG1
T35 chain: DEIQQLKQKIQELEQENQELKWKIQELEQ

4H908-bN = molecular target: T36, 4H908-bN; assay: two-hybrid library CCNG1
T36 chain: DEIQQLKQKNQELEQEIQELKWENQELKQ

4H883-bN = molecular target: T37, 4H883-bN; assay: two-hybrid library CCNG1
T37 chain: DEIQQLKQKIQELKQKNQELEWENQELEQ

4H568-bN = molecular target: T38, 4H568-bN; assay: two-hybrid library CCNG1
T38 chain: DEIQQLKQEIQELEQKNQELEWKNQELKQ

4H454-bN = molecular target: T39, 4H454-bN; assay: two-hybrid library CCNG1
T39 chain: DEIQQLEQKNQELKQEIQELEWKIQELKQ

4H953-bN = molecular target: T40, 4H953-bN; assay: two-hybrid library CCNG1
T40 chain: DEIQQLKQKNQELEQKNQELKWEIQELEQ

4H607-bN = molecular target: T41, 4H607-bN; assay: two-hybrid library CCNG1
T41 chain: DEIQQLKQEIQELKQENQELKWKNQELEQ

4H72-bN = molecular target: T42, 4H72-bN; assay: two-hybrid library CCNG1
T42 chain: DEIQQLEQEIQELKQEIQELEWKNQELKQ

4H717-bN = molecular target: T43, 4H717-bN; assay: two-hybrid library CCNG1
T43 chain: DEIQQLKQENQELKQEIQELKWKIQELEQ

Binder DEIAQLEQKNAELKQEIAELEWKIAQLKQ [4H454-bA] has an interaction score (4H568-bA) of -0.589, an interaction score (4H72-bA) of -0.678 and an interaction score (4H953-bA) of 0.62. The interaction score (4H687-bA) was 1.48, the interaction score (4H754-bA) was -0.711 and the interaction score (4H717-bA) was 0.262. The interaction score (4H454-bA) was 1.86, the interaction score (4H797-bA) was -1.06 and the interaction score (4H908-bA) was -0.182. The interaction score (4H918-bA) was -0.912, the interaction score (4H967-bA) was -0.131 and the interaction score (4H607-bA) was -0.773. It also gave an interaction score (4H883-bA) of -0.0808.

DKIAALKAKNAALEAEIAALEAENAALEG [4H2947-AA] showed an interaction score (4H446-AA) of -0.0537, an interaction score (4H3915-AA) of -1.59 and an interaction score (4H63-AA) of -1.61. For the same binder, the interaction score (4H380-AA) was -1.17, the interaction score (4H3094-AA) was 1.06 and the interaction score (4H324-AA) was -1.49. It also gave an interaction score (4H341-AA) of -1.12, an interaction score (4H2961-AA) of -2.03 and an interaction score (4H3449-AA) of -0.39. For the same binder, the interaction score (4H3619-AA) was -1.85, the interaction score (4H3049-AA) was -0.853 and the interaction score (4H3777-AA) was -1.93. It also gave an interaction score (4H3629-AA) of -1.56, an interaction score (4H3974-AA) of -1.36 and an interaction score (4H432-AA) of 2.09.

DEIQELEKKNEELKRKIWELKKENQELKR [4H492-bH] gave an interaction score (4H492-bH) of 0.6 and an interaction score (4H741-bH) of -0.317.

Binder DEIQQLEQKNQELKQEIQELEWKIQELKQ [4H454-bN] has an interaction score (4H687-bN) of 1.02, an interaction score (4H918-bN) of -0.834 and an interaction score (4H754-bN) of -0.587. For the same binder, the interaction score (4H967-bN) was -0.354, the interaction score (4H797-bN) was -0.833 and the interaction score (4H908-bN) was 0.201. It also gave an interaction score (4H883-bN) of -0.143, an interaction score (4H568-bN) of 0.196 and an interaction score (4H454-bN) of -0.79. The interaction score (4H953-bN) was -1.26, the interaction score (4H607-bN) was 0.145 and the interaction score (4H72-bN) was 0.494. It also gave an interaction score (4H717-bN) of 0.0875.
